The values below come from PMC6221947 (Structure (London, England : 1993), 2018).

Substrate in data set [1]: NC(=O)c1ccc[n+]([C@@H]2O[C@H](COP(=O)(O)OP(=O)(O)OC[C@H]3O[C@@H](n4cnc5c(N)ncnc54)[C@H](O)[C@@H]3O)[C@@H](O)[C@H]2O)c1
Kind of data set: purified protein. The data set is classed as biochemical, Trypanosoma brucei. The note with it: 78 μM [14C]spermidine, 15 μM TbeIF5A, 5 nM DHS; varied: cofactor.

Substrate in data set [2]: NCCCCNCCCN
Kind of data set: purified protein. In kind it is biochemical, Trypanosoma brucei. The note with it: 1 mM NAD+, 15 μM TbeIF5A, 5 nM DHS; labelled compound.

Data set [3] has as its target T1, Trypanosoma brucei deoxyhypusine synthase, catalytic paralog (TbDHSc), His-SUMO tag removed (T. brucei, UniProt Q38BX0 1-461).
T1 sequence: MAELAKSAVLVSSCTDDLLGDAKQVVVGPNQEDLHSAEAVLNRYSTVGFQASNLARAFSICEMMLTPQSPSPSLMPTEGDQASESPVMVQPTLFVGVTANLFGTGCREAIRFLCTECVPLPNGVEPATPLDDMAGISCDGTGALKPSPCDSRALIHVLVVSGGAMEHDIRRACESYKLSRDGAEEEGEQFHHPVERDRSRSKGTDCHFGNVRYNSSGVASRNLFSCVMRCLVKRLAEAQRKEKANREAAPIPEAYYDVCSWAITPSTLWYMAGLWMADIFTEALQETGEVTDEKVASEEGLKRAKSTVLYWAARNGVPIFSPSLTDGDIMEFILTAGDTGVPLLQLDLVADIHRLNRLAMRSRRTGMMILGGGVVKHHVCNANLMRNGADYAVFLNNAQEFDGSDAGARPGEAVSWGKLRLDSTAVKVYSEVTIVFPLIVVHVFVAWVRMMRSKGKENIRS
The data set is described as follows: crystal structure.

B1: TbDHSc:DHSp (Trypanosoma brucei brucei TREU927) (protein)
chain 1: T1 sequence
chain 2: MSGVPFPSRVIGDLDYSNLLNIGQEEAIRCVLNAYPNIGLEATNLGRARRIVQRALNDNGMDGNKVMLAYTSNLISSGLRDTFACLARENRIGAVVTTAGGVEEDVIKCLGDTLVGDFALNDHALRNNGLNRVGNLLVPNDNYRNFEDFFVPLLRRLHEQQRDSRWTTKTTPSQIIAEIGAALESVRPNDCGSSLIYWCYRNDIPVFSPAFTDGSMGDMIYFYNYSRKGLVVDPVPDVRRLRQLGCKSTNVGRITCIVLGAGLPKHHLLRNVQADAVVYVTTGSDADGCESSCNVMADRANGLLSPNCDVVRVHGDATIISPLLLLRSSDGKEKVGVREDGN
For B1, the values for the Km in the data set “purified protein [1]” and in “purified protein [2]” were 1.3 ± 0.18 µM and 9.8 ± 1.2 µM, respectively. Besides, the figures for the kcat in the data set “purified protein [1]” and in the data set “purified protein [2]” were 0.15 ± 0.0045 s⁻¹ and 0.18 ± 0.01 s⁻¹, respectively.

B2: Trypanosoma brucei deoxyhypusine synthase prozyme paralog (TbDHSp), untagged (natural protein, T. brucei, UniProt Q4GZD1 1-342, looked up)
chain: B1 chain 2
Regarding B2, the binding result in data set [3] is recorded as “binds”.
